Source: publication PMC7311308

Target: CD46-D4

With Ad26 knob (domain or fragment) the Kd was 120 nM.
